# Experimental data: patent US20180355338A1
# What was measured:
# [1] = biological target: TY-145 protease variant K146A, S173P, S175P, F180Y (Bacillus sp. TY-145); assay: Ki fitted from Suc-AAPF-pNA activity; Model B detergent; ratio against m3 (without K146A)
# [2] = biological target: TY-145 protease variant S173P, S175P, F180Y, L184Y (Bacillus sp. TY-145); assay: Ki fitted from Suc-AAPF-pNA activity; Model B detergent; ratio against m3 (without L184Y)
# [3] = biological target: TY-145 protease variant S27K, K146P, S148R, A151R, S171N, S173P, G174R, S175P, F180Y, Q198E, N199K, T297P (Bacillus sp. TY-145); assay: Ki fitted from Suc-AAPF-pNA activity; Model B detergent; ratio against m5 (without A151R)
# [4] = biological target: TY-145 protease variant S173P, S175P, I178Y, F180Y (Bacillus sp. TY-145); assay: Ki fitted from Suc-AAPF-pNA activity; Model B detergent; ratio against m3 (without I178Y)
# [5] = biological target: TY-145 protease variant S173P, S175P, I178P, F180Y (Bacillus sp. TY-145); assay: Ki fitted from Suc-AAPF-pNA activity; Model B detergent; ratio against m3 (without I178P)
# [6] = biological target: TY-145 protease variant S27K, S171N, S173P, G174R, S175P, F180Y, L184Y, Q198E, T297P (Bacillus sp. TY-145); assay: Ki fitted from Suc-AAPF-pNA activity; Model B detergent; ratio against m4 (without L184Y)
# [7] = biological target: TY-145 protease variant S173P, S175P, F180Y, R224S (Bacillus sp. TY-145); assay: Ki fitted from Suc-AAPF-pNA activity; Model B detergent; ratio against m3 (without R224S)
# [8] = biological target: TY-145 protease variant S27K, S173P, G174K, S175P, F180Y, L184F, Q198E, N199K, T297P (Bacillus sp. TY-145); assay: Ki fitted from Suc-AAPF-pNA activity; Model B detergent; ratio against m8 (without L184F)
substance,measurement,setting,value
"Z-Gly-Ala-NHCH(CH2C6H4pOH)C(OH)(SO3Na)-H, wherein Z is benzyloxycarbonyl (peptide)",relative Ki mutation,[1],0.34
same,relative Ki mutation,[2],0.24
same,relative Ki mutation,[3],0.75
same,relative Ki mutation,[4],0.53
same,relative Ki mutation,[5],0.51
same,relative Ki mutation,[6],0.18
same,relative Ki mutation,[7],0.5
same,relative Ki mutation,[8],0.36
